# Test results taken from publication PMC10917784 (Nature Communications, 2024).
# B1: daratumumab (antibody, V domains shown)
# VH: EVQLLESGGGLVQPGGSLRLSCAVSGFTFNSFAMSWVRQAPGKGLEWVSAISGSGGGTYYADSVKGRFTISRDNSKNTLYLQMNSLRAEDTAVYFCAKDKILWFGEPVFDYWGQGTLVTVSS
# VL: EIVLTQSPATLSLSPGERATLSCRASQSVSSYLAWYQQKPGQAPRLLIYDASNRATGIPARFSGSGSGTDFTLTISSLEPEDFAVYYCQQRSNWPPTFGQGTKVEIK
# notes: whole antibody in the assay; the PDB entry holds only part of it; also called Darzalex; source: bought: Janssen Biotech Inc
# Columns and labels:
# Conditions in all cases: one partner purified
# CD38 on tumor cell lines [1] = biological target: T1, CD38 on tumor cell lines (Homo sapiens, UniProt P28907); assay: flow cytometry on cells; Raji cells, increasing antibody concentrations, 4 °C, 30 min, labelled anti-human IgG secondary; Kd from fit of RFI
# T1 construct: CD38 on the surface of CD38high (Daudi, Raji) and CD38low (NCI-H929, KMS-12-BM) cell lines; source: endogenous, on Daudi, Raji, NCI-H929 and KMS-12-BM cells
# CD38 on tumor cell lines [2] = biological target: T1, CD38 on tumor cell lines; assay: flow cytometry on cells; Daudi cells, increasing antibody concentrations, 4 °C, 30 min, labelled anti-human IgG secondary; Kd from fit of RFI
# CD38 on tumor cell lines [3] = biological target: T1, CD38 on tumor cell lines; assay: flow cytometry on cells; NCI-H929 cells, increasing antibody concentrations, 4 °C, 30 min, labelled anti-human IgG secondary; Kd from fit of RFI
# CD38 on tumor cell lines [4] = biological target: T1, CD38 on tumor cell lines; assay: flow cytometry on cells; KMS-12-BM cells, increasing antibody concentrations, 4 °C, 30 min, labelled anti-human IgG secondary; Kd from fit of RFI
binder,measurement,setting,value
B1,Kd,CD38 on tumor cell lines [1],0.33 nM
same,Kd,CD38 on tumor cell lines [2],0.258 nM
same,Kd,CD38 on tumor cell lines [3],0.506 nM
same,Kd,CD38 on tumor cell lines [4],0.138 nM
